Data on one molecule can be found in paper PMC6862324.

The target in this experiment is T1, FLAG-tagged human NLRP1 (human), Q9C000.
T1 chain: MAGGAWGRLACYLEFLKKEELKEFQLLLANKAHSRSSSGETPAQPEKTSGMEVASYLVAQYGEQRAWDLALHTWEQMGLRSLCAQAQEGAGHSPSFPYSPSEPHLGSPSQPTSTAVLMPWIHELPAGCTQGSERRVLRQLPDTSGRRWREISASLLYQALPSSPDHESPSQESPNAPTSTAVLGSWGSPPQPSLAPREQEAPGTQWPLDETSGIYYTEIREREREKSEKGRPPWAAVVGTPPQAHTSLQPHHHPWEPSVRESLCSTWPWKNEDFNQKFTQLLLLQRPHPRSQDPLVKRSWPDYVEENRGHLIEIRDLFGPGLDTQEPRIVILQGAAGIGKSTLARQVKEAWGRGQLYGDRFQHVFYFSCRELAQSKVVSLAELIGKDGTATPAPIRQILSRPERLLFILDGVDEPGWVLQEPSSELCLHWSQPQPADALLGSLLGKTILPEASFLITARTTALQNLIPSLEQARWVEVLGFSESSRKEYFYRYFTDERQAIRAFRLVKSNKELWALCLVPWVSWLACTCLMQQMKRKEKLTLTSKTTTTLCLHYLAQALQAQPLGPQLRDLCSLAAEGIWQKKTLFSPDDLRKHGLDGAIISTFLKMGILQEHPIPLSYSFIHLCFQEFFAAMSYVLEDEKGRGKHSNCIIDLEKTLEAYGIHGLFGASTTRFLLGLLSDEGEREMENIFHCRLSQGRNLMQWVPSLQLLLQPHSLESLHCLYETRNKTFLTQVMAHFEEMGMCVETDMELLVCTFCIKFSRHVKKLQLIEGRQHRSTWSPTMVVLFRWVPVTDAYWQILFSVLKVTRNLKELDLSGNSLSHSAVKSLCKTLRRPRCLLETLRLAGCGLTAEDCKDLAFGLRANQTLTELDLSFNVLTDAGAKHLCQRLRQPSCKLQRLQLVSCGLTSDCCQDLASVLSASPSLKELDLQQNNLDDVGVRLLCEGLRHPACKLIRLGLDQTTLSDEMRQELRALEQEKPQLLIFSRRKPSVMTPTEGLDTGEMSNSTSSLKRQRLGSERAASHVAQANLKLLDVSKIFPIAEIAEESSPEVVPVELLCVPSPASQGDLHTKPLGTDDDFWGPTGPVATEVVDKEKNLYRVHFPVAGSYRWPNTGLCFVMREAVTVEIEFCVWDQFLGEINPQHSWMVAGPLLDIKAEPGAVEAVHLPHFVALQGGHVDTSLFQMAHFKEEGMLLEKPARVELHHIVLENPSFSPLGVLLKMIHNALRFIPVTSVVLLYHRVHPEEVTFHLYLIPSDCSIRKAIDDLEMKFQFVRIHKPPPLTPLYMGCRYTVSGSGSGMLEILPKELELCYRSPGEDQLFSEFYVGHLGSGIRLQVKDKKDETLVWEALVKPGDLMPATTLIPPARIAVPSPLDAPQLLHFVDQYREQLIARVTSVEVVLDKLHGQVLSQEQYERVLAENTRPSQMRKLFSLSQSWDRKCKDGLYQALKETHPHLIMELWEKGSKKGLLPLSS
Nature of the experiment: co-IP. Conditions: remark: other sources report otherwise.

B1: endogenous DPP9, Q86TI2 1-863 (enzyme)
chain: MATTGTPTADRGDAAATDDPAARFQVQKHSWDGLRSIIHGSRKYSGLIVNKAPHDFQFVQKTDESGPHSHRLYYLGMPYGSRENSLLYSEIPKKVRKEALLLLSWKQMLDHFQATPHHGVYSREEELLRERKRLGVFGITSYDFHSESGLFLFQASNSLFHCRDGGKNGFMVSPMKPLEIKTQCSGPRMDPKICPADPAFFSFINNSDLWVANIETGEERRLTFCHQGLSNVLDDPKSAGVATFVIQEEFDRFTGYWWCPTASWEGSEGLKTLRILYEEVDESEVEVIHVPSPALEERKTDSYRYPRTGSKNPKIALKLAEFQTDSQGKIVSTQEKELVQPFSSLFPKVEYIARAGWTRDGKYAWAMFLDRPQQWLQLVLLPPALFIPSTENEEQRLASARAVPRNVQPYVVYEEVTNVWINVHDIFYPFPQSEGEDELCFLRANECKTGFCHLYKVTAVLKSQGYDWSEPFSPGEDEFKCPIKEEIALTSGEWEVLARHGSKIWVNEETKLVYFQGTKDTPLEHHLYVVSYEAAGEIVRLTTPGFSHSCSMSQNFDMFVSHYSSVSTPPCVHVYKLSGPDDDPLHKQPRFWASMMEAASCPPDYVPPEIFHFHTRSDVRLYGMIYKPHALQPGKKHPTVLFVYGGPQVQLVNNSFKGIKYLRLNTLASLGYAVVVIDGRGSCQRGLRFEGALKNQMGQVEIEDQVEGLQFVAEKYGFIDLSRVAIHGWSYGGFLSLMGLIHKPQVFKVAIAGAPVTVWMAYDTGYTERYMDVPENNQHGYEAGSVALHVEKLPNEPNRLLILHGFLDENVHFFHTNFLVSQLIRAGKPYQLQIYPNERHSIRCPESGEHYEVTLLHFLQEYL
Molecule B1 yielded a fold reduction of binding with VbP (10 uM, in the lysate) against DMSO of 2 fold.
